PMC3328597

Target: T1, dSLBP P231G RPD (Drosophila, UniProt Q9VAN6 173-276, P231G)
T1 sequence: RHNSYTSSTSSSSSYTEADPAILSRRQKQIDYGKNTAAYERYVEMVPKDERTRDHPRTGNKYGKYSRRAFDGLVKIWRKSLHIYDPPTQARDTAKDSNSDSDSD
Test: NMR

## GGCCAAAGGCCCUUUUCAGGGCCACCCA (structured_RNA) [SL28-CG]
  binding result: binds
